The target in experiment [1] is T1, IgG1-Fc (RED Systems; 110-HG-100) (UniProt P01857-1 100-330 = IgG part).
T1 construct: domain: Fc; Negative control, coupled to Sulfo-SBED; also called negative isotype control IgG-Fc
Nature of the experiment: Sulfo-SBED photo-crosslinking to HL-60 cells, Protein A pull-down, anti-PSGL-1 Western blot. The protocol:
Also in these experiments, samples of VISTA-Fc fusion protein (described in Example I) and negative controls of an anti-CD28 antibody (BioXcell, BE0248) and IgG1-Fc (RED Systems; 110-HG-100) were covalently coupled to a bifunctional linker (Sulfo-SBED—ThermoFisher Scientific; 33073) using the manufacturing recommended conditions. The resulting samples were incubated with HL-60 cells for 30 min. at room temperature in a dark place. Crosslinking was photoactivated with a UV light source for 20 min. Cells were then lysed and a Protein A Sepharose pull-down was performed. A Western Blot using an anti-PSGL-1 polyclonal antibody (RED Systems; AF3345) or Streptavidin-HRP was performed on the samples.
A general note: Immunoblotting shows a protein as a band on a membrane.

The target in experiment [2] is T2, VISTA-Fc fusion protein (human).
T2 construct: The limits of the VISTA and Fc parts are marked only by underline and bold, which are not preserved
T2 chain: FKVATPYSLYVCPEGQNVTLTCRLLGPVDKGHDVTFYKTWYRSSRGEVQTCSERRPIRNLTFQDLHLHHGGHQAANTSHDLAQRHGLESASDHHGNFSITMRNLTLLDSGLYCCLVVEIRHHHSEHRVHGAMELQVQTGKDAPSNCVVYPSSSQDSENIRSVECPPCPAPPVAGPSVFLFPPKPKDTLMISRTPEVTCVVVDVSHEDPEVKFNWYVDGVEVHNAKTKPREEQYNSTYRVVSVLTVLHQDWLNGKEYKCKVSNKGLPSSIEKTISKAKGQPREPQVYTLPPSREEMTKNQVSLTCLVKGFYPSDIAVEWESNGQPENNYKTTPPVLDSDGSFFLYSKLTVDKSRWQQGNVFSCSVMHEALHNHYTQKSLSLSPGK
Nature of the experiment: biosensor, VISTA-Fc immobilized, PSGL-1B in flow (0.3-9.6 µM), HBS with Ca and Mg; equilibrium affinity analysis (1:1 model). The protocol: (§1) The immobilized VISTA-Fc sample was equilibrated in HEPES buffered saline (HBS) containing calcium (1.5 mM calcium chloride) and magnesium (1.0 mM magnesium chloride). The same buffer was used as running buffer. Samples containing the PSGL-1A or PSGL-1B, which also contained calcium and magnesium, were flowed across a solid surface containing the immobilized VISTA-Fc at a flow rate of 60 μl/min, with 120 seconds of contact time and 300 seconds for dissociation after the surface was regenerated with a 3 second pulse of glycine (pH 1.5). Six difference concentrations of PSGL-1A and PSGL-1B were assayed (0.3 μM, 0.60 μM, 1.20 μM, 2.4 μM, 4.8 μM and 9.6 μM).
(§2) Two different analyses of the experiments were performed: (1) a two-state binding model; and (2) an equilibrium affinity analysis (1:1 model).

In experiment [3] the target is T2, VISTA-Fc fusion protein. The experiment can be described thus: biosensor, VISTA-Fc immobilized; estimated affinity, called qualitative.
The target of experiment [4] is T2, VISTA-Fc fusion protein. Nature of the experiment: biosensor, VISTA-Fc immobilized, PSGL-1B in flow (0.3-9.6 µM), HBS with Ca and Mg; two-state binding model. The protocol: as §1, §2
The target in experiment [5] is T2, VISTA-Fc fusion protein. Nature of the experiment: biosensor, VISTA-Fc immobilized, PSGL-1A in flow (0.3-9.6 µM), HBS with Ca and Mg; equilibrium affinity analysis (1:1 model). The protocol: as §1, §2
Experiment [6] deals with T2, VISTA-Fc fusion protein. The experiment can be described thus: biosensor, VISTA-Fc immobilized, PSGL-1A in flow (0.3-9.6 µM), HBS with Ca and Mg; two-state binding model. How it is done:
as §1, §2

B1: P-selectin glycoprotein ligand 1 (PSGL-1) expressed on human cells (receptor)
chain: QATEYEYLDYDFLPETEPPEMLRNSTDTTPLTGPGTPESTTVEPAARRSTGLDAGGAVTELTTELANMGNLSTDSAAMEIQTTQPAATEAQTTPLAATEAQTTRLTATEAQTTPLAATEAQTTPPAATEAQTTQPTGLEAQTTAPAAMEAQTTAPAAMEAQTTPPAAMEAQTTQTTAMEAQTTAPEATEAQTTQPTATEAQTTPLAAMEALSTEPSATEALSMEPTTKRGLFIPFSVSSVTHKGIPMAASNLSVNYPVGAPDHISVKQCLLAILILALVATIFFVCTVVLAVRLSRKGHMYPVRNYSPTEMVCISSLLPDGGEGPSATANGGLSKAKSPGLTPEPREDREGDDLTLHSFLP
notes: Endogenous protein on cells; also called SELPLG; CD162
For B1, the binding result in experiment [1] is on record as “no binding”.

B2: PSGL-1 construct B (Fc-fused PSGL-1 with IgG kappa signal sequence and tandem repeat unit) (Fc fusion)
chain: DQATEYEYLDYDFLPETEPPEMLRNSTDTTPLTGPGTPESTTVEPAARRSTGLDAGGAVTELTTELANMGNLSTDSAAMEIQTTQPAATEAQTTQPVPTEAQTTPLAATEAQTTRLTATEAQTTPLAATEAQTTPPAATEAQTTQPTGLEAQTTAPAAMEAQTTAPAAMEAQTTPPAAMEAQTTQTTAMEAQTTAPEATEAQTTQPTATEAQTTPLAAMEALSTEPSATEALSMEPTTKRGLFIPFSVSSVTHKGIPMAASNLSVNYPVGAPDHISVARSVECPPCPAPPVAGPSVFLFPPKPKDTLMISRTPEVTCVVVDVSHEDPEVKFNWYVDGVEVHNAKTKPREEQYNSTYRVVSVLTVLHQDWLNGKEYKCKVSNKGLPSSIEKTISKAKGQPREPQVYTLPPSREEMTKNQVSLTCLVKGFYPSDIAVEWESNGQPENNYKTTPPVLDSDGSFFLYSKLTVDKSRWQQGNVFSCSVMHEALHNHYTQKSLSLSPGK
notes: Its limits are marked only by italic, which is not preserved; Cells were co-transfected with GCNT1 and FUT3 glycosyltransferases; also called PSGL-1B
One may read the Kd as a measure of binding affinity in units of concentration. Take B2: the Kd is 4.76 µM with VISTA-Fc fusion protein [2], ~5 µM with VISTA-Fc fusion protein [3] and 5.09 µM with VISTA-Fc fusion protein [4].

B3: PSGL-1 construct A (Fc-fused PSGL-1 with IgG kappa signal sequence and propeptide sequence) (Fc fusion)
chain: QATEYEYLDYDFLPETEPPEMLRNSTDTTPLTGPGTPESTTVEPAARRSTGLDAGGAVTELTTELANMGNLSTDSAAMEIQTTQPAATEAQTTPLAATEAQTTRLTATEAQTTPLAATEAQTTPPAATEAQTTQPTGLEAQTTAPAAMEAQTTAPAAMEAQTTPPAAMEAQTTQTTAMEAQTTAPEATEAQTTQPTATEAQTTPLAAMEALSTEPSATEALSMEPTTKRGLFIPFSVSSVTHKGIPMAASNLSVARSVECPPCPAPPVAGPSVFLFPPKPKDTLMISRTPEVTCVVVDVSHEDPEVKFNWYVDGVEVHNAKTKPREEQYNSTYRVVSVLTVLHQDWLNGKEYKCKVSNKGLPSSIEKTISKAKGQPREPQVYTLPPSREEMTKNQVSLTCLVKGFYPSDIAVEWESNGQPENNYKTTPPVLDSDGSFFLYSKLTVDKSRWQQGNVFSCSVMHEALHNHYTQKSLSLSPGK
notes: Their limits are marked only by italic and bold, which are not preserved; Cells were co-transfected with GCNT1 and FUT3 glycosyltransferases for post-translational modification; also called PSGL-1A
For the molecule B3, the Kd in the experiment with VISTA-Fc fusion protein [3] is ~3 µM; with VISTA-Fc fusion protein [5] it was 3.01 µM; in the experiment with VISTA-Fc fusion protein [6], 32.1 µM.

(Values after US20230243836A1 (published 2023).)
